Test results taken from patent US20240316154A1 (Eli Lilly, published 2024).
Residue numbers refer to the chain shown, from its start. Numbers in names are those of the source.

B1: VHH moiety 4 (MC6.1C80.43) (VHH)
VHH: EVQLLESGGGLVQPGGSLRLSCAASGRYIDETAVAWFRQAPGKGREFVAGIGGGVDITYYADSVKGRFTISRDNSKNTLYLQMNSLRPEDTAVYYCAARPGRPLITSKVADLYPYWGQGTLVTVSS
B2: VHH moiety 39 (MC6.1C90.43) (VHH)
VHH: B1 VHH with A97G
B3: VHH moiety 40 (MC6.1C95.43) (VHH)
VHH: B1 VHH with A97G, A98T
B4: VHH moiety 12 (MC6.1C22-Y59A) (VHH)
VHH: B1 VHH with G44E, Y59A
B5: VHH moiety 9 (MC6.1C22-R27A) (VHH)
VHH: B1 VHH with R27A, G44E
B6: VHH moiety 10 (MC6.1C22-157E) (VHH)
VHH: B1 VHH with G44E, I57E
notes: name printed as 157E
B7: VHH moiety 11 (MC6.1C22-157Q) (VHH)
VHH: B1 VHH with G44E, I57Q
notes: name printed as 157Q
B8: VHH moiety 13 (MC6.1C22-Y59E) (VHH)
VHH: B1 VHH with G44E, Y59E
B9: VHH moiety 14 (MC6.1C22-Y59Q) (VHH)
VHH: B1 VHH with G44E, Y59Q
B10: VHH moiety 15 (MC6.1C22-Y59S) (VHH)
VHH: B1 VHH with G44E, Y59S
B11: VHH moiety 18 (MC6.1C22-R102Q) (VHH)
VHH: B1 VHH with G44E, R102Q
B12: VHH moiety 19 (MC6.1C22-R102S) (VHH)
VHH: B1 VHH with G44E, R102S
B13: VHH moiety 20 (MC6.1C22-P103) (VHH)
VHH: B1 VHH with G44E, P103E
notes: name printed without the new residue
B14: VHH moiety 21 (MC6.1C22-P103Q) (VHH)
VHH: B1 VHH with G44E, P103Q
B15: VHH moiety 22 (MC6.1C22-P103S) (VHH)
VHH: B1 VHH with G44E, P103S
B16: VHH moiety 23 (MC6.1C22-L104E) (VHH)
VHH: B1 VHH with G44E, L104E
B17: VHH moiety 24 (MC6.1C22-L104G) (VHH)
VHH: B1 VHH with G44E, L104G
B18: VHH moiety 25 (MC6.1C22-L104Q) (VHH)
VHH: B1 VHH with G44E, L104Q
B19: VHH moiety 26 (MC6.1C22-L104T) (VHH)
VHH: B1 VHH with G44E, L104T
B20: VHH moiety 16 (MC6.1C22-Y59T) (VHH)
VHH: B1 VHH with G44E, Y59T

Key:
[1] = target: T1, Human serum albumin (human, UniProt P02768 25-609); assay: SPR, SA on chip, VHH 300 nM, 25 C
T1 construct: bought; immobilised on a CM5 chip by amine coupling; also called Human SA
Protocol: (§1) Immobilization of SA to a Series S Sensor Chip CM5 surface is performed according to the manufacturer's instructions (amine coupling kit BR-1000-50). […] Human SA is obtained from Sigma Aldrich (St. Louis, MO; Cat. No. A8763). […] Mouse SA is obtained from Sigma Aldrich (Cat. No. A3559). Rat SA is obtained from Sigma Aldrich (Cat. No. A4538). Pig SA is obtained from Sigma Aldrich (Cat. No. A4414). […] Cow SA is obtained from Sigma Aldrich (Cat. No. A7030). The various SAs are covalently immobilized through free amines onto a carboxymethyl dextran-coated sensor chip CM5 targeting a surface density of average approximately 77 (58-98) RU. Excess reactive groups on the surfaces (flow cell 1 and 2) are deactivated by injecting 70 μL of 1 M ethanolamine hydrochloride-NaOH, pH 8.5, at 10 μL/min.
(§2) VHH moieties are diluted in HBS-EP+buffer (10 mM HEPES, pH 7.6, 150 mM NaCl, 3 mM EDTA, and 0.05% Polysorbate 20) at concentrations of 300 nM. 150 μL of sample is individually injected sequentially across the immobilized SAs surface and is dissociated for 600 sec at a flow rate of 50 L/min at 25 C. […] The resulting sensorgrams are analyzed using Biacore 8K Insight Evaluation Software (version 2.0.15.12933) to calculate the dissociation rate (kd).

[2] = target: T2, Mouse serum albumin (mouse, UniProt P07724 25-608); assay: SPR, SA on chip, VHH 300 nM, 25 C
T2 construct: bought; immobilised on a CM5 chip by amine coupling; also called Mouse SA
Protocol: as §1, §2

[3] = target: T3, Cynomolgus monkey serum albumin (cynomolgus monkey, UniProt A2V9Z4 25-608); assay: SPR, SA on chip, VHH 300 nM, 25 C
T3 construct: bought; immobilised on a CM5 chip by amine coupling; also called Cyno SA
Protocol: as §1, §2

[4] = target: T4, Dog serum albumin (dog, UniProt P49822 25-608); assay: SPR, SA on chip, VHH 300 nM, 25 C
T4 construct: bought; immobilised on a CM5 chip by amine coupling; also called Dog SA
Protocol: as §1, §2

[5] = target: T5, Pig serum albumin (pig, UniProt P08835 25-607); assay: SPR, SA on chip, VHH 300 nM, 25 C
T5 construct: bought; immobilised on a CM5 chip by amine coupling; also called Pig SA
Protocol: as §1, §2

[6] = target: T6, Rat serum albumin (rat, UniProt P02770 25-608); assay: SPR, SA on chip, VHH 300 nM, 25 C
T6 construct: bought; immobilised on a CM5 chip by amine coupling; also called Rat SA
Protocol: as §1, §2

[7] = target: T2, Mouse serum albumin; assay: SPR, SA on chip, 25 C
[8] = target: T4, Dog serum albumin; assay: SPR, SA on chip, 25 C
[9] = target: T7, Cow serum albumin (cow, UniProt P02769 25-607); assay: SPR, SA on chip, 25 C
T7 construct: bought; immobilised on a CM5 chip by amine coupling; also called Cow SA

[10] = target: T5, Pig serum albumin; assay: SPR, SA on chip, 25 C
[11] = target: T6, Rat serum albumin; assay: SPR, SA on chip, 25 C
[12] = target: T3, Cynomolgus monkey serum albumin; assay: SPR, SA on chip, 25 C

| Binder | koff [1] [s⁻¹] | koff [2] [s⁻¹] | koff [3] [s⁻¹] | koff [4] [s⁻¹] | koff [5] [s⁻¹] | koff [6] [s⁻¹] | binding result [7] | binding result [8] | binding result [9] | binding result [10] | binding result [11] | binding result [12] |
| --- | --- | --- | --- | --- | --- | --- | --- | --- | --- | --- | --- | --- |
| B1 | 0.00021 | 0.0043 | 0.00053 | 0.0017 | 0.0057 | 0.0033 |  |  |  |  |  |  |
| B2 | 9.4e-05 | 0.0056 | 0.0006 | 0.0021 | 0.0065 | 0.0038 |  |  |  |  |  |  |
| B3 | 0.00014 | 0.0054 | 0.00072 | 0.0021 | 0.0058 | 0.0053 |  |  |  |  |  |  |
| B4 | 0.011 |  |  |  |  |  | no binding (tested: 300 nM) | no binding (tested: 300 nM) | no binding (tested: 300 nM) | no binding (tested: 300 nM) | no binding (tested: 300 nM) |  |
| B5 | 0.0012 | 0.013 | 0.0032 | 0.011 | 0.012 | 0.011 |  |  |  |  |  |  |
| B6 |  |  |  |  |  |  |  |  | no binding (tested: 300 nM) |  |  |  |
| B7 | 0.0074 |  |  |  |  |  | no binding (tested: 300 nM) | no binding (tested: 300 nM) | no binding (tested: 300 nM) | no binding (tested: 300 nM) | no binding (tested: 300 nM) |  |
| B8 |  |  |  |  |  |  | no binding (tested: 300 nM) | no binding (tested: 300 nM) | no binding (tested: 300 nM) | no binding (tested: 300 nM) | no binding (tested: 300 nM) | no binding (tested: 300 nM) |
| B9 | 0.013 |  |  |  |  |  | no binding (tested: 300 nM) | no binding (tested: 300 nM) | no binding (tested: 300 nM) | no binding (tested: 300 nM) | no binding (tested: 300 nM) | no binding (tested: 300 nM) |
| B10 | 0.0058 |  |  |  |  |  | no binding (tested: 300 nM) | no binding (tested: 300 nM) | no binding (tested: 300 nM) | no binding (tested: 300 nM) | no binding (tested: 300 nM) |  |
| B11 | 0.0076 |  | 0.0072 | 0.015 |  | 0.014 |  |  | no binding (tested: 300 nM) |  |  |  |
| B12 | 0.0045 | 0.015 | 0.0073 | 0.014 | 0.014 | 0.015 |  |  | no binding (tested: 300 nM) |  |  |  |
| B13 | 0.0092 |  |  |  |  |  | no binding (tested: 300 nM) |  | no binding (tested: 300 nM) | no binding (tested: 300 nM) | no binding (tested: 300 nM) | no binding (tested: 300 nM) |
| B14 | 0.0025 | 0.013 | 0.014 | 0.0081 | 0.01 | 0.011 |  |  |  |  |  |  |
| B15 | 0.0028 | 0.01 | 0.014 | 0.0074 | 0.011 | 0.01 |  |  |  |  |  |  |
| B16 |  |  |  |  |  |  | no binding (tested: 300 nM) | no binding (tested: 300 nM) |  | no binding (tested: 300 nM) | no binding (tested: 300 nM) | no binding (tested: 300 nM) |
| B17 |  |  |  |  |  |  | no binding (tested: 300 nM) | no binding (tested: 300 nM) |  | no binding (tested: 300 nM) | no binding (tested: 300 nM) | no binding (tested: 300 nM) |
| B18 |  |  |  |  |  |  |  |  | no binding (tested: 300 nM) |  |  | no binding (tested: 300 nM) |
| B19 |  |  |  |  |  |  | no binding (tested: 300 nM) | no binding (tested: 300 nM) | no binding (tested: 300 nM) | no binding (tested: 300 nM) | no binding (tested: 300 nM) | no binding (tested: 300 nM) |
| B20 | 0.0039 |  | 0.015 |  |  |  | no binding (tested: 300 nM) |  | no binding (tested: 300 nM) | no binding (tested: 300 nM) | no binding (tested: 300 nM) |  |
